Holding throughout (conditions): remark: other sources report otherwise
For experiment [1], the target named is recombinant soluble homotrimeric HA of A/Japan/305/57 (H2N2) (Influenza A virus A/Japan/305/1957(H2N2)). In words: HA microarray, BCC supernatant.
Experiment [2] addresses recombinant soluble homotrimeric HA of A/Vietnam/1203/04 (H5N1) (Influenza A virus A/VietNam/1203/2004(H5N1)). In words: HA microarray, BCC supernatant.
In experiment [3] the target is recombinant soluble homotrimeric HA of A/Netherlands/219/03 (H7N7) (Influenza A virus A/Netherlands/219/03(H7N7)). In words: HA microarray, BCC supernatant.
Experiment [4] has as its target recombinant soluble homotrimeric HA of A/chicken/Vietnam/NCVD-016/08 (H5N1) (Influenza A virus A/chicken/Vietnam/NCVD-016/2008(H5N1)). In words: HA microarray, BCC supernatant.
The target of experiment [5] is recombinant soluble homotrimeric HA of A/Indonesia/5/05 (H5N1) (Influenza A virus A/Indonesia/5/2005(H5N1)). In words: HA microarray, BCC supernatant.
The target of experiment [6] is recombinant soluble homotrimeric HA of A/California/4/09 (H1N1) (Influenza A virus A/California/04/2009(H1N1)). In words: HA microarray, BCC supernatant.
In experiment [7] the target is recombinant soluble homotrimeric HA of A/Solomon Islands/3/06 (H1N1) (Influenza A virus A/Solomon Islands/3/2006(H1N1)). In words: HA microarray, BCC supernatant.
Experiment [8] has as its target recombinant soluble homotrimeric HA of A/northern shoveler/California/HKWF115/07 (H6) (Influenza A virus A/northern shoveler/California/HKWF115/2007(H6N1)). In words: HA microarray, BCC supernatant.
The target of experiment [9] is recombinant soluble homotrimeric HA of A/Hong Kong/2108/03 (H9N2) (Influenza A virus A/HK/2108/2003(H9N2)). In words: HA microarray, BCC supernatant.
Experiment [10] concerns the target recombinant soluble homotrimeric HA of A/Anhui/1/05 (H5N1) (Influenza A virus A/Anhui/1/2005(H5N1)). In words: HA microarray, BCC supernatant.
The target in experiment [11] is recombinant homotrimeric HA A/Egypt/3300-NAMRU3/08 H5N1 (Influenza A virus A/Egypt/3300-NAMRU3/2008(H5N1)). In words: protein microarray, purified IgG, trimeric HA.
In experiment [12] the target is recombinant homotrimeric HA A/Hong Kong/1073/99 H9N2 (Influenza A virus A/Hong Kong/1073/99 (H9N2)). In words: protein microarray, purified IgG, trimeric HA.
Experiment [13] concerns the target recombinant homotrimeric HA A/Solomon Islands/3/06 H1N1 (Influenza A virus A/Solomon Islands/3/2006(H1N1)). In words: protein microarray, purified IgG, trimeric HA.
Experiment [14] has as its target recombinant homotrimeric HA A/Hong Kong/2108/03 H9N2 (Influenza A virus A/HK/2108/2003(H9N2)). In words: protein microarray, purified IgG, trimeric HA.
For experiment [15], the target named is recombinant homotrimeric HA A/South Carolina/1/18 H1N1 (Influenza A virus A/South Carolina/1/18 (H1N1)). In words: protein microarray, purified IgG, trimeric HA.
Experiment [16] addresses recombinant homotrimeric HA A/Hong Kong/156/97 H5N1 (Influenza A virus A/Hong Kong/156/97 (H5N1)). In words: protein microarray, purified IgG, trimeric HA.
The target in experiment [17] is recombinant homotrimeric HA A/chicken/Vietnam/NCVD-016/08 H5N1 (Influenza A virus A/chicken/Vietnam/NCVD-016/2008(H5N1)). In words: protein microarray, purified IgG, trimeric HA.
Experiment [18] concerns the target recombinant homotrimeric HA A/Indonesia/5/05 H5N1 (Influenza A virus A/Indonesia/5/2005(H5N1)). In words: protein microarray, purified IgG, trimeric HA.
For experiment [19], the target named is recombinant homotrimeric HA A/Vietnam/1203/04 H5N1 (Influenza A virus A/VietNam/1203/2004(H5N1)). In words: protein microarray, purified IgG, trimeric HA.
Experiment [20] concerns the target recombinant homotrimeric HA A/Japan/305/57 H2N2 (Influenza A virus A/Japan/305/1957(H2N2)). In words: protein microarray, purified IgG, trimeric HA.
Experiment [21] has as its target recombinant homotrimeric HA A/California/4/09 H1N1 (Influenza A virus A/California/04/2009(H1N1)). In words: protein microarray, purified IgG, trimeric HA.
The target in experiment [22] is recombinant homotrimeric HA A/northern shoveler/California/HKWF115/07 H6N4 (Influenza A virus A/northern shoveler/California/HKWF115/2007(H6N1)). In words: protein microarray, purified IgG, trimeric HA.
The target of experiment [23] is recombinant homotrimeric HA A/Anhui/1/05 H5N1 (Influenza A virus A/Anhui/1/2005(H5N1)). In words: protein microarray, purified IgG, trimeric HA.
Experiment [24] concerns the target recombinant soluble homotrimeric HA of A/duck/Yangzhou/02/05 (H8N4) (Influenza A virus A/duck/Yangzhou/02/2005(H8N4)). In words: HA microarray, BCC supernatant.
In experiment [25] the target is recombinant soluble homotrimeric HA of A/Wisconsin/67/05 (H3N2) (Influenza A virus A/Wisconsin/67/2005(H3N2)). In words: HA microarray, BCC supernatant.
Experiment [26] deals with recombinant homotrimeric HA A/Netherlands/219/03 H7N7 (Influenza A virus A/Netherlands/219/03(H7N7)). In words: protein microarray, purified IgG, trimeric HA.
Experiment [27] has as its target recombinant homotrimeric HA A/Wisconsin/67/05 H3N2 (Influenza A virus A/Wisconsin/67/2005(H3N2)). In words: protein microarray, purified IgG, trimeric HA.

B1: TCN-523 (5248_A17) (antibody, V domains shown)
VH: QVQLVQSGAEVKKPGSSVKVSCKASGGSFSNYAFSWVRQAPGQGLEWMGGTIPLLGTTNYAQKFQGRVTISADQFTSTAYMELGSLRSEDTAVYYCTRRKMTTAFDSWGQGTLVTVSS
VL: QPVLTQPPSASASLGASVTLTCTLSSAYSNYKVDWYQQRPGKGPRFVMRVGTGGIVGSKGDGIPDRFSVLGSGLNRYLTIKNIQEEDESDYHCGADHGSGSNFVSPYVFGGGTKLTVL
With B1, the Trimeric HA Binding: RLU in experiment [1] is 5110 RLU; in experiment [2], 3380 RLU; in experiment [3], 2340 RLU; in experiment [4], 48900 RLU; in experiment [5], 45800 RLU; in experiment [6] it was 34700 RLU. The Trimeric HA Binding: RLU in [7] stood at 37900 RLU; in experiment [8], 46900 RLU; in experiment [9], 189 RLU; in [10], 5700 RLU; in [11] it was 21300 RLU; in experiment [12] it was 2130 RLU. The Trimeric HA Binding: RLU came out at 5130 RLU in [13]; 163 RLU in [14]; 9720 RLU in experiment [15]; 5810 RLU in experiment [16]; 4960 RLU in experiment [17]; 16900 RLU in experiment [18]. In addition, the Trimeric HA Binding: RLU in experiment [19] is 20000 RLU; in experiment [20] it was 15300 RLU; in experiment [21], 19500 RLU; in experiment [22] it was 3370 RLU; in experiment [23] it was 7240 RLU.

B2: TCN-534 (5249_B02) (antibody, V domains shown)
VH: QVQLVQSGAEVKKPGSSVKVSCRESGGTFNGYTITWVRQAPGQGLEWMGGIIPMMGTVNYAQKLQGRVTITTDYFTKTAYMDLNNLRSEDTAMYYCVKIRYTGQQLLWGQGTLVTVSS
VL: DIQMTQSPSTLSASIGDRVTITCRASQSIASWLAWYQQKPGKAPKLLIYEAVNLESGVPSRFSGSGSGTDFTLTISSLQPDDFATYFCQHYGTISQTFGGGTKVEIK
For the molecule B2, the Trimeric HA Binding: RLU in experiment [1] came out at 50600 RLU; in experiment [2], 3440 RLU; in [3] it was 4340 RLU; in experiment [4], 56600 RLU; in [24] it was 46500 RLU; in experiment [5], 46400 RLU. In addition, the Trimeric HA Binding: RLU in [6] worked out at 30100 RLU; in experiment [7], 44200 RLU; in [25], 7980 RLU; in experiment [8], 52400 RLU; in [9], 165 RLU; in experiment [10] it was 6860 RLU. The Trimeric HA Binding: RLU was 18200 RLU in experiment [11]; 918 RLU in [12]; 11400 RLU in experiment [13]; 172 RLU in experiment [14]; 9240 RLU in [15]; 13200 RLU in experiment [16]. Besides, the Trimeric HA Binding: RLU is 5170 RLU in experiment [17]; 19500 RLU in experiment [18]; 25900 RLU in experiment [19]; 29100 RLU in [20]; 20700 RLU in experiment [21]; 3420 RLU in [26]. The Trimeric HA Binding: RLU was 21700 RLU in experiment [22] and 1900 RLU in experiment [23].

B3: TCN-538 (3206_O17) (antibody, V domains shown)
VH: QITLKESGPTLVKPTQTLTLTCVFSGFSLSITGVRVGWIRQPPGKALEWLALISWDDEKHYSPSLQSRLTITKDTSKNQVVLTMTNLDPVDTATYYCARSTDRGHVLRYFGWMLPGDAFDVWGQGTMVTVSS
VL: DIVMTQSPDFLPVSLGERATINCKSSQRVLYSSNNKNYLAWYQLKPGQPPKLIIYWASTRESGVPDRFSGSGSGTEFTLTISSLQAEDVAVYYCQQYYSRPYTFGQGTKLEIK
B3: the Trimeric HA Binding: RLU in experiment [1] came out at 43000 RLU; in [2], 60 RLU; in experiment [4], 37300 RLU; in experiment [24], 6120 RLU; in [5], 26400 RLU; in experiment [6], 13800 RLU. Moreover, the Trimeric HA Binding: RLU in experiment [7] is 33200 RLU; in experiment [25], 6900 RLU; in [8] it was 17400 RLU; in experiment [9] it was 109 RLU; in experiment [10] it was 689 RLU; in experiment [11] it was 7290 RLU. Moreover, the Trimeric HA Binding: RLU in experiment [12] amounted to 1270 RLU; in experiment [13], 9740 RLU; in experiment [14] it was 172 RLU; in experiment [15], 6770 RLU; in experiment [16], 7080 RLU; in [17] it was 1060 RLU. Further, the Trimeric HA Binding: RLU in experiment [18] is 7450 RLU; in [19], 14000 RLU; in experiment [20] it was 20500 RLU; in [21] it was 4810 RLU; in experiment [26], 446 RLU; in [22] it was 11400 RLU.

B4: TCN-546 (5089_L08) (antibody, V domains shown)
VH: QVQLQQWGAGLLKPSETLSLTCGVYGGSLSDYYWSWIRQPPGKGLEWIGEINHSGGTNYNPSLKRRVTISVDTSKKQFSLKMNSVTAADTAVYYCARGTDPDTEVYCRAGNCAAFDFWGQGTLVTVSS
VL: EIVLTQSPGTLSLSPGERATLSCRASHFVIGRAVAWYQQKPGQAPRLLIYGASSRATGIPDRFSGSGSGTDFTLTISRLETEDFAVFYCQHYGSSPRYAFGQGTKLEIK
On to B4, for which the Trimeric HA Binding: RLU in [1] was 520 RLU; in experiment [2], 349 RLU; in experiment [3], 1450 RLU; in experiment [4], 421 RLU; in experiment [24], 487 RLU; in experiment [5] it was 18400 RLU. The Trimeric HA Binding: RLU was found to be 350 RLU in experiment [6]; 30200 RLU in [25]; 13000 RLU in experiment [9]; 2040 RLU in experiment [10]; 11200 RLU in experiment [11]; 505 RLU in experiment [12]. Besides, the Trimeric HA Binding: RLU in [14] was found to be 307 RLU; in [15], 88 RLU; in experiment [16], 890 RLU; in experiment [17] it was 207 RLU; in experiment [18] it was 147 RLU; in experiment [27], 25500 RLU. The Trimeric HA Binding: RLU was 1200 RLU in experiment [19]; 503 RLU in [20]; 277 RLU in [21]; 386 RLU in [26]; 21400 RLU in [23].

Values taken from patent US20150086555A1.
